A short description of the data set: soluble fraction after stress (log2 fold change); higher = more stays soluble; pooled small domains, quantitative proteomics. Conditions: stress: pH 4. In outline:
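Pooled custom libraries of small protein domains were subjected to pH 4 and measured by high-throughput quantitative proteomics. The log2 fold change in soluble amount per domain is reported, higher values meaning more remained soluble. This is used as a measure of aggregation propensity.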
On to “HMRRKNQVQSSYQKRENGTYTVRFFLSDDMGSIMDLQLMATREDMARALRERFLKDPEKIYGQIMQMLLR”, for which the “soluble fraction (log2)” value came out at 0.241. “HMRRLGTTEIAGILRREISQGILIAKERLPSERSLADTYGVARGTVRQALNLLAREGLVQIRRSSGAYVTF”: the “soluble fraction (log2)” value was -0.299.

“HMRRMAYLVGQRGLAMGDFISGTGQVRIGDTVWRAEAVEGELVRTGDTVVVEGAKMTTAIVRRVM”: the “soluble fraction (log2)” value was -0.302.

For “HMRRRKPLVSYEYGTRVYAPSEGEPRYRVVATDADGQRVFAKFSSEEAARHRAREIEGRLATS”, the “soluble fraction (log2)” value was determined as 0.0937. Take “HMRRSSQQLTLTEVSTIKEMVTSEEYRHVPTGTLALLAQRLRKVFASSSTWYRLVRIYKWRRPRGRIH”: the “soluble fraction (log2)” value came out at 0.296. In the case of “HMRRSVYQANVLDAIKHLVDQNELATTKAIAEYIGDDYQGNVSRAIRELLADRKIKKLPKVGVLQPYEA”, the “soluble fraction (log2)” value amounted to 0.127.

Regarding “HMRRVEDVRTALEHFAAARNTTPMAMTLDQRREAMRELAASGLLNLRRALSEVAQTLGVARSTVYTYLP”, the “soluble fraction (log2)” value is at least 0.43. For “HMRSAKEYKAIREEIYRFIGAYITKHVYAPSNKEIAEAVGISGTTVHRHLIDMIDEGILETD”, the “soluble fraction (log2)” value was -1.29. “HMRSFGTLRRLPSGRYQASYAGPDLRRHAAPTTFETKLDAEGWLRDEHRMIERDEWTAPAARSQLK”: the “soluble fraction (log2)” value turned out to be 0.0606. “HMRSFRIGGLVEQGSIARDGQSLTVRFAVTDLAHKIPVTYTGLLPDLFKEGKGVVAEGKLGPDGVFHASQV”: the “soluble fraction (log2)” value was -0.705.

On to “HMRSPIWKSITATLTAEIAGGQYRAGDKLPTEAELSQRFGVNRHTLRRALAEMAGAGLVVARRGAGVFVQG”, for which the “soluble fraction (log2)” value was -0.289. “HMRSPLYVQIKQHILGDIRKGVWKPGEKLPTELDLAERFGVSVGTVRRAMGGLEDEGIISRREGSGTFVRT”: the “soluble fraction (log2)” value was 0.229. Turning to “HMRSSAATMFGRIALKNKLVDEATLKKVMSELPAGADLGAVLVKQGLISEQHAEAIQKKITAHMKSAP”, the “soluble fraction (log2)” value was 0.0511. Next, “HMRSSALDEIPGIGKQRKKNLLVHFTSVAKIKEASLDEIAAVPGMNRKAALVVVEFFQNQERE”: 0.158; “HMRSSNEAVSQRRDKILDYISATGRTSTEIVAKEFGVSVMTARRDLLYLMEKRLISKSSSGLFKVDNN”: 0.408.

On to “HMRTIGDSVYEKIKYDIVHLTLKPGEKLSEASLAEKYGISKAPIRVALRKLQEEGLIVIRPQSGSIVSP”, for which the “soluble fraction (log2)” value came to 0.0262. Consider “HMRTMRHLSVPRQETQQILSQLKAEFALPQGARVQPDPSDSKRTLIPVKEGAESELLSRYPVVHAEP”, for which the “soluble fraction (log2)” value came to 0.11.

For “HMRTNNEITSYKLKSGKKRWKFQTYLGLDDKGQKVSVTRQGFRTYNEAISEYNKLRAQGTQGYQ”, the “soluble fraction (log2)” value is at least 0.43. As for “HMRTPTGVQAYLSSGLIKGIGEKTAAAIVDKFGTDALSVIETDPERLLEIPGITPNKLREILESYNQH”, the “soluble fraction (log2)” value is 0.174. Take “HMRTVAERYGLTAGQWRVLELLTQGKTNRQIAEMLDVTEGTVKIHVSAIFKAMKVTNRTQALLLAKKH”: the “soluble fraction (log2)” value was -0.522.

Consider “HMRTYDPQAVELNNKALELINQGRLDSALLVYDQSIKTDKTYYFPHIGKSIIYMRKKDWNKAFEETQQAIK”, for which the “soluble fraction (log2)” value amounted to 0.0261.

Take “HMRVDLATEVHSVLRRMMSRPPTLQEIRADLDGEEPGRVHEALDALRAAFRGGRGPKNPYESLKRSLRRG”: the “soluble fraction (log2)” value is -0.126. On to “HMRVDLVQRLARHGLSPRQSAVAGGVLRGLDNGEISRQLYIAEQTVKDHLHEIYHRLGVHTRTELLIKVLG”, for which the “soluble fraction (log2)” value was -0.359. With “HMRVGISRNSGAAGIAVWLTQKLGRPVAKTEEIVHILKNWVDDQYEAGRVTNIGDGELWSVYKQMEAEE”, the “soluble fraction (log2)” value is 0.0584. Next, “HMRVTEIDYGAFMKMIEEKNIGEVKVEDYEIVFTDKDNKNIYKTGIMDDPDLTQRLYNSGAVFA”: -1.22. Take “HMRWGDPLTVKVPSFIGQTKDDIAKQHYPFRIEWHGEGAKIGSQLPEVDSVIKQDGTIHLYLV”: the “soluble fraction (log2)” value is -0.0995. Next, “HMRYFDDEELNNKFLEFLSMRKKIRKPVRTDRALKALLKKLHELSGGDVGLMKQIIDQSLDKEWLGLFEL”: -0.6; “HMRYNPETTAGRRGLIIKMLDEYGQVNVNELSRYFNVSEVTVRNDLAYLERKNLLIRARGGAIKTE”: 0.0289; “HMRYWVKSETDFLIENRGKYSYQEFADMLGRSYAVVYDKMHQLKIDYTKEELEIFDEKHKAQMREKQQR”: -0.665. Next, “HMSAAPVGPWALSEFLDAVEKDSVERVTFDDAGKALVAVDADGGRHRVEILPSEGPEILAALRKHSVQFA”: -0.346; “HMSADEVSQQLTSEQTKSKSYQALLQAYAAYQQKSFDDAALELQNVQQDVLSDSQKTIYNTISQAVNS”: -0.0227; “HMSADISIGYNIPKGSVTVSAGGRTLQEGIDYDINYDLGTIKITNQAILNAGLPVQVNFENNAS”: -0.212.

Regarding “HMSADLVYLRKRLQDAIAQLPENMRTAYTLFQIANRSIREISELTGASESLVKVRIHRAKGKLQKQLEDLK”, the “soluble fraction (log2)” value is -0.5. On to “HMSAEDYLERIHELIESKGTAHVADIAQSLGVGKPSVTSMVQKLADEGYLNYEKYRSLTLTDSGRSIA”, for which the “soluble fraction (log2)” value worked out at 0.0599. In the case of “HMSAEDYMEMIYRLSQENGFTRVNDLASALNVQPPSVTRMIQKLAELNLIKYEKYGVIMLQPYGIEVGRSL”, the “soluble fraction (log2)” value was -1.47. On to “HMSAEGPALADWVVRDAHSIGAKITNSVAQLLIDRVGHNQQLLHNELQKLALVQTDISAELVKTMSHY”, for which the “soluble fraction (log2)” value is -0.0595. For the sequence “HMSAETRSWTDAQGNQTQAVLRGFDGGDVLLQNAAGKTLRVPVKNLSEDDQRYVVLNISTLID”, the “soluble fraction (log2)” value is -0.594. In the case of “HMSAITLDQARAIALDHAGISEGDATFVKEQTGTSSYEIEFYSGSNEYDYEIDKATGAILNVDR”, the “soluble fraction (log2)” value was determined as 0.22. For “HMSALAEELIKKNQAMILTIKPRDTIWGIANRFQSPPSEKFINQIIELNQVDPYRLRIGQDLLIPLN”, the “soluble fraction (log2)” value was determined as 0.00792. With “HMSALTDQQQRVLELVASGLVYKEVAAALSISEPTVKYHMGNILTRLHVKNRAQAIAAARQQGLL”, the “soluble fraction (log2)” value is -0.26. As for “HMSAMKYTSEVFQRLSRGQFISSNSIDAETRAIYSDIEENQQEYEDYFSKIDFLLSSGDGFYYFSRK”, the “soluble fraction (log2)” value is -1.22. “HMSAMSPTEVGERLRLAREAVRMTQKQAADAISVARTTLVAIEQGQRRVRIDELQQLAKTYGVSVNAILR”: the “soluble fraction (log2)” value came to 0.27. Next, “HMSAPAKKPKIKVDLSKVHAGTIVRHKGYGLGQVKGIDGAIIVVTFDGVDKKFQFPGGFENGFLFLTED”: -1.21; “HMSAPLKELGNDPESGKPIVVKDGRFGAYVTDGETNATLRKTDAVESLTPERAAELLAEKRAKG”: 0.199. On to “HMSAPTAFSERELELLAGMRRGASNKAMAEQLFISVNTVKYHRANLMRKLGARDRNEALEVAARLG”, for which the “soluble fraction (log2)” value is -0.179. On to “HMSAQDLIVKTDATQVEARVLEISPEQIRYKRFSNPDGPTYVLPVDAVDYIRYANGETDSFR”, for which the “soluble fraction (log2)” value was -0.446. Regarding “HMSASAIYVRPKDVKEPEEVADYLSGVLELDREKLYKKITDKSQWIALIERKVDNDIAFDIRNKKFKGIEI”, the “soluble fraction (log2)” value is -0.784. The figure for “HMSASIAEGTVIMLENTTNIRSGMSEDSSKVGTAYAGEKVTVVMSYAEGWTKVKWNGETGYIKTALLQL” is -0.405.

“HMSASNSIDFANRMIYNKNQVAVFNFGKHMGRPVLEVLKSDPSYYDWMMKGDFPMDTKRKLTEIKLQGF”: the “soluble fraction (log2)” value is -0.173. On to “HMSATPQRMTIIDALDSSGKNLSAYELLDLLNDKGQLFNISTIYRVLDFWIEMGIVHKINSSNTYL”, for which the “soluble fraction (log2)” value was determined as 0.132.

The values are drawn from the domain aggregation screens of Martell et al. (2025).
